From paper PMC3699631, “Posttranslational Modifications of the Histone 3 Tail and Their Impact on the Activity of Histone Lysine Demethylases In Vitro” (PLoS ONE, 2013)
Entries after “also recorded” stand apart in the source; their conditions may differ.

Molecular target: T1, human FL-KDM4C (Homo sapiens, UniProt Q9H3R0)
T1 construct: along with the full length FL- KDM4C and FL-KDM4A using various synthetic histone tail peptides as substrates; His6 (N); FLAG (N); made in house; host or cells: High Five (Trichoplusia ni) insect cells, baculovirus
T1 sequence (Q9H3R0 1-1056): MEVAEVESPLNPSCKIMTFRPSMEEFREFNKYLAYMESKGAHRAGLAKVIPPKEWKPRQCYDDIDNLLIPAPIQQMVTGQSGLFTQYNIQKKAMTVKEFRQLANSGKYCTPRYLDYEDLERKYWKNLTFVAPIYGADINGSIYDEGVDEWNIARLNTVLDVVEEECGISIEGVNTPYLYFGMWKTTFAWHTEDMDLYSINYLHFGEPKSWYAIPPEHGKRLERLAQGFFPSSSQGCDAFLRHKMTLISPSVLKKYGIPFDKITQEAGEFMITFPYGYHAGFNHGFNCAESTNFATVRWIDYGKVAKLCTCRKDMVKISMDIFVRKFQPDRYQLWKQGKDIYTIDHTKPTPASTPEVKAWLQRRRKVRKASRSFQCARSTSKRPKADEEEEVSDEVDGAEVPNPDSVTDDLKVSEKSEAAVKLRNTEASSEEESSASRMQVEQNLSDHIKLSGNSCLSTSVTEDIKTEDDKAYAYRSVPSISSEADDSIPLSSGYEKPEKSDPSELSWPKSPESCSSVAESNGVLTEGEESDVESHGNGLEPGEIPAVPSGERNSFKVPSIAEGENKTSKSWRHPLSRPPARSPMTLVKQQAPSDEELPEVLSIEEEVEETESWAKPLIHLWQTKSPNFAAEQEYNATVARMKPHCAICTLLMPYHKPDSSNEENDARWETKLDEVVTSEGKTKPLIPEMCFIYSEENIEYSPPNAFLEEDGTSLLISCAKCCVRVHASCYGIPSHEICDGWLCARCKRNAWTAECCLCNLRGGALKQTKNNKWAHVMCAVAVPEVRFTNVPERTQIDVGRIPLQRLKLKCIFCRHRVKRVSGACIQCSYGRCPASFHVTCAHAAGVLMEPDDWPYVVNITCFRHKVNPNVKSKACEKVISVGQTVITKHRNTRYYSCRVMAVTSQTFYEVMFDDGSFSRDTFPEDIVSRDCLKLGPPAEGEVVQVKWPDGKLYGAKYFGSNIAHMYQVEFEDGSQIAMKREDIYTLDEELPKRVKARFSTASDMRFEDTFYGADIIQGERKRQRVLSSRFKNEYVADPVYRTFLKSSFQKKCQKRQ
Test: FDH-assay enzyme kinetics of H3 peptide demethylation, full length KDM4C
Assay type: biochemical
Set-up: key to K m / k cat / k cat /K m: 0 means no demethylation could be detected
Details: for demethylation / catalytic activity (in words) / K m / k cat / k cat /K m: FDH-assay; for K m: 50 mM HEPES (pH 7.5), 50 mM NaCl, 50 µM FeSO4, 500 µM α-KG, 500 µM ascorbate, 2 mM NAD, substrate 10–1000 µM, NADH fluorescence 15–30 minutes; for K m / k cat: triplicate; for k cat: pH 7.5, NADH fluorescence; for k cat /K m: pH 7.5, triplicate
Method: The enzyme kinetics were measured using a Formaldehyde DeHydrogenase Assay (FDH-Assay) and the demethylation of substrates was confirmed when possible by MALDI-TOF-MS, see File S1 for details. The test solution contained 50 mM HEPES (pH 7.5), 50 mM NaCl, 50 µM FeSO4, 500 µM α-KG, 500 µM ascorbate, 2 mM NAD, approximately 0.05 unit of FDH and e.g. 4.88 µM KDM4C (enzyme concentration varied between batches). The reference solution was comprised of the same except substrate. The assay was initiated by adding various concentrations of H3 peptide substrates e.g. H3(1–24)K9me3 (10–1000 µM) and the increase in NADH fluorescence was measured over 15–30 minutes in 30 second intervals. Data analysis and kinetic values were obtained using programs Excel and GraphPad Prism® 5.0. For details, see File S1.
The standard deviations for k cat/K m were calculated using the statistic law of propagation of errors. Standard errors for Michaelis-Menten Kinetics were automatically given in GraphPad Prism®, with a 95% confidence interval. All enzyme kinetic curves were done in triplicate unless otherwise stated.
Test for activity of enzyme using the fluorescence FDH assay, determination of Vmax and Km of enzymes with substrate, expression and purification of cc-KDM4A and cc-KDM4C software and parameters for the FDH coupled assay, see Lohse et al.^21
Recombinant baculoviridae encoding the full Open Reading Frame (ORF) of FL-KDM4A and FL-KDM4C were generously donated from the Biotech Research and Innovation Centre (BRIC), University of Copenhagen, Denmark. Recombinant protein was expressed by adding High Titer Stocks to High Five (Trichopulsia ni) insect cells in suspension culture. The cell cultures were harvested by centrifugation after ~ 60 hours and the cells were resuspended in hypotonic buffer (25 mM Hepes-KOH, pH 7.7, 1.5 mM MgCl, 5 mM KCl) supplemented with one protease inhibitor cocktail tablet per 500 ml expression (Roche, EDTA-free). The resuspended cells were frozen at -20 °C.
Both proteins were purified by IMAC using Talon FF (Clontech) cobalt resin according to the following protocol; resuspended cells were thawed on ice, 100 ml hypotonic buffer was added per 500 ml expression volume and the cells were incubated with stirring for 30 min. at 4 °C, followed by a brief (30 s per 500 ml culture volume) sonication. β-mercaptoethanol (BME, 2 mM final concentration), Triton X-100 (0.2 % final concentration) and NaCl (300 mM final concentration) were added and the cell suspension was stirred for another 30 min at 4 °C. The lysate was cleared by centrifugation at 50.000 g for 60 minutes. The cleared lysates were adjusted to 5 mM imidazole and incubated with Talon resin (1 ml /500 ml expression) for 60 minutes. The resin was allowed to sediment, the lysate removed and the resin was transferred to PD-10 gravity flow columns (GE Healthcare). The resin was washed with 10 column volumes of binding buffer (50 mM Hepes-KOH, pH 7.7, 300 mM NaCl, 5 mM imidazole, 10% glycerol, 0.05 % Triton X-100, 2 mM BME) and eluted with 2 x 2.5 ml elution buffer (50 mM Hepes-KOH, pH 7.7, 300 mM NaCl, 100 mM imidazole, 10 % glycerol, 0.05 % Triton X-100, 2 mM BME). Each eluted fraction has its buffer changed to 50 mM Hepes pH 7.5, 300 mM NaCl, 10 % glycerol using a PD-10 desalting column. The protein was concentrated to 6-7 mg/ml (FL-KDM4A) or 10-12 mg/ml (FL-KDM4C). Despite the buffer change it is likely that small amounts of Triton X-100 remained in the protein samples. Triton X-100 has a significant absorbance at 280 nm, so the protein concentration was determined by Bradford assay using a BSA standard curve. The protein purity was approximately 70 % as judged from SDS-PAGE. The concentrated protein was aliquoted and stored at -80 °C until assays were performed.
The standard deviations for kcat/ Km were calculated using the statistic law of propagation of errors. […]

[1] = SD by propagation of errors, unit: (min^−1 * µM^−1) * 10^3

Row | Substance | demethylation / catalytic activity (in words) | K m | k cat | k cat /K m [1] | fold increase in k cat/K m (compared to H3(1–24)K9me3) [fold] | k cat /K m (figures) [min^-1 * μM^-1 * 10^3] | demethylation / catalytic activity (in words) (listed as H3K9me3)
1 | H3(1–24)K4me3K9me3: bis-tri-methylated substrate, trimethylated K4 in combination with H3K9me3 | a small difference in activity between H3(1–24)K9me3 and H3(1–24)K4me3-K9me3 | 42±3 | 1.1±0.2 | 24±3 | 2 | 24 ± 3 | 
2 | H3(1–24)K9me2: truncated histone tail, 24 first amino acids from the N-terminus of H3, dimethylated lysine 9 |  | 79±10 |  | 1.3±0.2 |  | 2 ± 0.4 | 
3 | H3(1–24)K9me3: truncated histone tail, 24 first amino acids from the N-terminus of H3, trimethylated lysine 9; control peptide |  | 57±5 | 0.7±0.1 | 12±2 |  | 12 ± 2 | preference for the H3K9me3 over the H3K9me2; also recorded: an order of magnitude higher activity towards trimethylated H3K9me3 compared to dimethylated H3K9me2 substrates
4 | H3(1–24)K9me3T11(ph): H3(1–24)K9me3 with phosphorylation of threonine 11 | no detectable turnover | 0 | 0 | 0 |  |  | 
